# Results reported in patent US10485854B2, “Method of reducing biofilms” (Lysando AG, priority 2010, dated 2019).
# Numbering of substitutions follows the chain as printed.
# B1: PSP3gp10: unmodified globular endolysin of Salmonella typhimurium phage PSP3, SEQ ID NO: 8 (protein)
# chain: MPVINTHQNIAAFLDMLAYSEGTANHPLTKNRGYDVIVTGFDGSPEIFTDYSDHPFAHGRPPKVFNRRGEKSTASGRYQQLYIFWPHYKKQLALPDFSPLSQDKLAIQLIRERGAIDDIRAGRIERAVSRCRNIWASLPGAGYGQREHSLEKLVTVWRTAGGVMA
# modifications: PSP3gp10
# B2: PKPSP3gp10: fusion protein SEQ ID NO: 53: endolysin PSP3gp10 (SEQ ID NO: 8) with peptide SEQ ID NO: 11 (protein)
# chain: MGSKRKKRKKRKPVINTHQNIAAFLDMLAYSEGTANHPLTKNRGYDVIVTGFDGSPEIFTDYSDHPFAHGRPPKVFNRRGEKSTASGRYQQLYIFWPHYKKQLALPDFSPLSQDKLAIQLIRERGAIDDIRAGRIERAVSRCRNIWASLPGAGYGQREHSLEKLVTVWRTAGGVMA
# modifications: PKPSP3gp10
# B3: PK-Lysostaphin: fusion protein SEQ ID NO: 142: bacteriocin Lysostaphin (SEQ ID NO: 87) with peptide SEQ ID NO: 11 (protein)
# chain: AMGKRKKRKKRKGSAHEHSAQWLNNYKKGYGYGPYPLGINGGMHYGVDFFMNIGTPVKAISSGKIVEAGWSNYGGGNQIGLIENDGVHRQWYMHLSKYNVKVGDYVKAGQIIGWSGSTGYSTAPHLHFQRMVNSFSNSTAQDPMPFLKSAGYGKAGGTVTPTPNTGWKTNKYGTLYKSESASFTPNTDIITRTTGPFRSMPQSGVLKAGQTIHYDEVMKQDGHVWVGYTGNSGQRIYLPVRTWNKSTNTLGVLWGTIKLVPRGS
# modifications: PK-Lysostaphin
# B4: ELgp188: unmodified modular endolysin of Pseudomonas aeruginosa phage EL, SEQ ID NO: 2 (protein)
# chain: MNFRTKNGYRDLQALVKELGLYTGQIDGVWGKGTSSSTETLLRGYAEVVGKNTGGIGLPTTSDASGYNVITALQRNLAFLGLYSLTVDGIWGNGTLSGLDKAFEVYKERYRTPTYDIAWSGKVSPAFTAKVKDWCGVHVPNHRAPHWLMACMAFETGQTFSPSIKNAAGSEAYGLIQFMSPAANDLNVPLSVIRSMDQLTQLDLVFKYFEMWMKRGKRYTQLEDFYLTIFHPASVGKKADEVLFLQGSKAYLQNKGFDVDKDGKITLGEISSTLYTTYYKGLLPENRHVISY
# modifications: ELgp188
# B5: POLY-gp144: fusion protein SEQ ID NO: 35: endolysin phiKZgp144 (SEQ ID NO: 1) with N-terminal peptide KRKKRKKRK (SEQ ID NO: 11) (protein)
# chain: MGSKRKKRKKRKKVLRKGDRGDEVCQLQTLLNLCGYDVGKPDGIFGNNTFNQVVKFQKDNCLDSDGIVGKNTWAELFSKYSPPIPYKTIPMPTANKSRAAATPVMNAVENATGVRSQLLLTFASIESAFDYEIKAKTSSATGWFQFLTGTWKTMIENYGMKYGVLTDPTGALRKDPRISALMGAELIKENMNILRPVLKREPTDTDLYLAHFFGPGAARRFLTTGQNELAATHFPKEAQANPSIFYNKDGSPKTIQEVYNLMDGKVAAHRK
# modifications: POLY-gp144
# B6: (POLY)^2-gp144: fusion protein SEQ ID NO: 36: endolysin SEQ ID NO: 1 with peptide SEQ ID NO: 21 (protein)
# chain: MGSKRKKRKKRKRSKRKKRKKRKKVLRKGDRGDEVCQLQTLLNLCGYDVGKPDGIFGNNTFNQVVKFQKDNCLDSDGIVGKNTWAELFSKYSPPIPYKTIPMPTANKSRAAATPVMNAVENATGVRSQLLLTFASIESAFDYEIKAKTSSATGWFQFLTGTWKTMIENYGMKYGVLTDPTGALRKDPRISALMGAELIKENMNILRPVLKREPTDTDLYLAHFFGPGAARRFLTTGQNELAATHFPKEAQANPSIFYNKDGSPKTIQEVYNLMDGKVAAHRK
# modifications: (POLY)2-gp144
# B7: POLY-gp188: fusion protein SEQ ID NO: 39: endolysin ELgp188 (SEQ ID NO: 2) with peptide SEQ ID NO: 11 (protein)
# chain: MGSKRKKRKKRKNFRTKNGYRDLQALVKELGLYTGQIDGVWGKGTSSSTETLLRGYAEVVGKNTGGIGLPTTSDASGYNVITALQRNLAFLGLYSLTVDGIWGNGTLSGLDKAFEVYKERYRTPTYDIAWSGKVSPAFTAKVKDWCGVHVPNHRAPHWLMACMAFETGQTFSPSIKNAAGSEAYGLIQFMSPAANDLNVPLSVIRSMDQLTQLDLVFKYFEMWMKRGKRYTQLEDFYLTIFHPASVGKKADEVLFLQGSKAYLQNKGFDVDKDGKITLGEISSTLYTTYYKGLLPENRHVISY
# modifications: POLY-gp188
# B8: (POLY)^2-gp188: fusion protein SEQ ID NO: 40: endolysin SEQ ID NO: 2 with peptide SEQ ID NO: 21 (protein)
# chain: MGSKRKKRKKRKRSKRKKRKKRKNFRTKNGYRDLQALVKELGLYTGQIDGVWGKGTSSSTETLLRGYAEVVGKNTGGIGLPTTSDASGYNVITALQRNLAFLGLYSLTVDGIWGNGTLSGLDKAFEVYKERYRTPTYDIAWSGKVSPAFTAKVKDWCGVHVPNHRAPHWLMACMAFETGQTFSPSIKNAAGSEAYGLIQFMSPAANDLNVPLSVIRSMDQLTQLDLVFKYFEMWMKRGKRYTQLEDFYLTIFHPASVGKKADEVLFLQGSKAYLQNKGFDVDKDGKITLGEISSTLYTTYYKGLLPENRHVISY
# modifications: (POLY)2-gp188
# B9: KRK_6_pET32b: fusion protein SEQ ID NO: 44: endolysin SEQ ID NO: 1 with peptide KRKKRK (SEQ ID NO: 10) (protein)
# chain: AMGSKRKKRKKVLRKGDRGDEVCQLQTLLNLCGYDVGKPDGIFGNNTFNQVVKFQKDNCLDSDGIVGKNTWAELFSKYSPPIPYKTIPMPTANKSRAAATPVMNAVENATGVRSQLLLTFASIESAFDYEIKAKTSSATGWFQFLTGTWKTMIENYGMKYGVLTDPTGALRKDPRISALMGAELIKENMNILRPVLKREPTDTDLYLAHFFGPGAARRFLTTGQNELAATHFPKEAQANPSIFYNKDGSPKTIQEVYNLMDGKVAAHRK
# modifications: KRK_6_pET32b
# B10: R9_pET32b: fusion protein SEQ ID NO: 47: endolysin SEQ ID NO: 1 with peptide RRRRRRRRR (SEQ ID NO: 12) (protein)
# chain: AMGSRRRRRRRRRKVLRKGDRGDEVCQLQTLLNLCGYDVGKPDGIFGNNTFNQVVKFQKDNCLDSDGIVGKNTWAELFSKYSPPIPYKTIPMPTANKSRAAATPVMNAVENATGVRSQLLLTFASIESAFDYEIKAKTSSATGWFQFLTGTWKTMIENYGMKYGVLTDPTGALRKDPRISALMGAELIKENMNILRPVLKREPTDTDLYLAHFFGPGAARRFLTTGQNELAATHFPKEAQANPSIFYNKDGSPKTIQEVYNLMDGKVAAHRK
# modifications: R9_pET32b
# B11: K8_pET32b: fusion protein SEQ ID NO: 48: endolysin SEQ ID NO: 1 with peptide KKKKKKKK (SEQ ID NO: 13) (protein)
# chain: B5 chain with M1A, G2M, S3G, K4S, R5K, R8K, R11K
# modifications: K8_pET32b
# B12: pK2KZ144_pET32b_mod3: fusion protein SEQ ID NO: 49: endolysin SEQ ID NO: 1 with 38-residue linker-containing peptide SEQ ID NO: 28 (protein)
# chain: AMGSKRKKRKKRKRGSGSGKRKKRKKRKRGSGSGKRKKRKKRKKVLRKGDRGDEVCQLQTLLNLCGYDVGKPDGIFGNNTFNQVVKFQKDNCLDSDGIVGKNTWAELFSKYSPPIPYKTIPMPTANKSRAAATPVMNAVENATGVRSQLLLTFASIESAFDYEIKAKTSSATGWFQFLTGTWKTMIENYGMKYGVLTDPTGALRKDPRISALMGAELIKENMNILRPVLKREPTDTDLYLAHFFGPGAARRFLTTGQNELAATHFPKEAQANPSIFYNKDGSPKTIQEVYNLMDGKVAAHRK
# modifications: pK2KZ144_pET32b_mod3
# Tested on: P. aeruginosa PAO1p
# Assay: not given
# Type: cell-based, Pseudomonas aeruginosa
# Settings: 1.315 μM endolysin + 0.5 mM EDTA
row,Molecule,interaction of EDTA with the endolysin
1,B1,synergistically
2,B2,synergistically

# Tested on: biofilm of the Staphylococcus aureus strain KS13
# Assay: Biofilm reduction, crystal violet assay
# Settings: 18 μg/well, 12 h; compared to the enzyme Lysostaphin
row,Molecule,"reduction of biofilm (crystal violet, absorption 590 nm)"
1,B3,massive reduction

# Tested on: P. aeruginosa PAO1p cells
# Assay: Antibacterial activity, 1 hour incubation with 100 μg/ml protein, residual colony count
# Settings: 100 μg/ml protein, room temperature
row,Molecule,antibacterial effect in words (reduction of cell numbers compared to the negative control)
1,B4,do not reduce cell numbers significantly
2,B5,significant reduction
3,B6,significant reduction
4,B7,significant reduction
5,B8,significant reduction

# Same assay, conditions: exponentially growing cells, undialyzed protein 100 μg/ml, room temperature (Table 6)
row,Molecule,antibacterial activity as the relative inactivation (%)
1,B4,10 ± 13
2,B5,99.85±0.09
3,B6,99.98±0.02
4,B7,98.0±0.2
5,B8,98.9 ± 0.4

# Same assay, conditions: undialyzed protein 100 μg/ml, room temperature (Table 7)
row,Molecule,Reduction [%]
1,B9,99.9
2,B10,99
3,B11,99
4,B12,99.9
